The target in test [1] is mouse F4/80 receptor expressed on macrophages (RAW 264.7 cells) (mouse) (UniProt Q61549). As to the kind of experiment: SPR (BI-2000), Fab'-covered NPs on a carboxydextran gold chip, RAW 264.7 cells injected at 2.5k cells/mL.
Test [2] has the same target. Description: SPR (BI-2000), Fab'-covered NPs on a carboxydextran gold chip, RAW 264.7 cells injected at 7.5k cells/mL.
Test [3] shares this target. As to the kind of experiment: SPR (BI-2000), Fab'-covered NPs on a carboxydextran gold chip, RAW 264.7 cells injected at 10k cells/mL.
The target is the same in test [4]. Description: SPR (BI-2000), Fab'-covered NPs on a carboxydextran gold chip, RAW 264.7 cells injected at 5k cells/mL.
For test [5] the target is unchanged. Description: cell-based or functional assay.
The target is the same in test [6]. Description: SPR, antibody-covered NPs coated on a gold chip, Raw 264.7 cells injected. For orientation: SPR reads the build-up and loss of mass on a sensor chip optically.

Chain of UniProt Q61549 (Q61549 28-931): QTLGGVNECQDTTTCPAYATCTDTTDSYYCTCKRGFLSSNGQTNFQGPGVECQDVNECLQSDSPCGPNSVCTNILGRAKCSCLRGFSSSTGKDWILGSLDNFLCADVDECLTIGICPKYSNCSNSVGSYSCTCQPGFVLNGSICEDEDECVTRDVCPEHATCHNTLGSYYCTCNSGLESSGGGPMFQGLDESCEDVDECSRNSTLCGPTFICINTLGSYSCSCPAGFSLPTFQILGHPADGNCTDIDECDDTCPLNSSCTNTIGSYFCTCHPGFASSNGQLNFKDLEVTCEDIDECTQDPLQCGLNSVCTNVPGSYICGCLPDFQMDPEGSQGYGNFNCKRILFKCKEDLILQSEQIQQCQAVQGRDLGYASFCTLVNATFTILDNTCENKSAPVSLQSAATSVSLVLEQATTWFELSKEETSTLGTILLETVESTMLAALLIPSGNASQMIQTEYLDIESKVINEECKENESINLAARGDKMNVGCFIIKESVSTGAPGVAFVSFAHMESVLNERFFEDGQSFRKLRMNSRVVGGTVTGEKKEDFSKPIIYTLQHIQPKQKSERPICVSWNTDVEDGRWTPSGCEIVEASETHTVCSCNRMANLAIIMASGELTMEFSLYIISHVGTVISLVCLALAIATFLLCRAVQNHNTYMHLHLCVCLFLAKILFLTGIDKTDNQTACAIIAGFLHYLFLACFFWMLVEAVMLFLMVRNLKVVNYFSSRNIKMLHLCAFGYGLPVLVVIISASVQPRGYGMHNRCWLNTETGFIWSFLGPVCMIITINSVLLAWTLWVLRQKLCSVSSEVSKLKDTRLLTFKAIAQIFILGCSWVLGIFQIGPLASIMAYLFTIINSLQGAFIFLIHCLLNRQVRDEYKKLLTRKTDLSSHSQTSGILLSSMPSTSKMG

Consider “Fab' fragment of the F4/80 antibody covalently attached to PLA-PEG nanoparticles”, for which the resonance angle deviation turned out to be 13 mDeg in test [1], 33 mDeg in test [2], 42 mDeg in test [3] and 17 mDeg in test [4]. This substance yielded an average fluorescent intensity per unit of surface area of RAW 264.7 cells exposed to NPs loaded with FITC-tagged siRNA (15 minutes, 500 ug/mL); non-coated NPs gave 10279 AU/um^2 in test [5] of 51300 AU/µm^2. This substance yielded a percent of colonic MPs (CD11c(-)CD11b(+)F4/80(+)) with positive FITC signals by flow cytometry after gavage of DSS-treated mice with NPs loaded with FITC-tagged siRNA; non-coated NPs gave 19% in test [5] of 28%.
In test [6], “mouse F4/80 antibody grafted onto maleimide-polyethyleneglycol-poly(lactic acid) nanoparticles” displayed a binding coefficient of 50.
